This assay has as its target tenascin on the tenascin-expressing human glioma cell line U-251 MG-C3 (glutaraldehyde-fixed) (human, UniProt P24821). The assay is described as follows: modified Scatchard analysis, 125I-labelled antibody on glutaraldehyde-fixed U-251 MG-C3 cells. As for the experimental part: A modified Scatchard analysis was used to measure the binding affinity of labeled ch81C6. Serially diluted 125I-labeled antibody (200 μl, 1:2 dilution starting from 1600 ng/ml) was incubated in 48-well plates overnight at 37° C. with the antigen-positive human glioma cell line U-251 MG-C3 fixed in glutaraldehyde and the antigen-negative human osteogenic sarcoma cell line 2T. The cells were washed and solubilized with 2N NaOH, and the radioactivity was measured with a gamma counter. The data was analyzed in accordance with known techniques (Y. S. Lee et al., *Cancer Res.* 48, 559 (1988)).
The ch81C6 from high production transfectoma F9C11A5 was purified and further characterized. It was labeled with ^125I using the Iodogen method, and the percentage of immunoreactivity was determined by absorption with D-54 MG xenograft homogenate. The affinity constant was defined by Scatchard analysis using binding assay on a tenascin-expressing cell line U-251 MGC-3 as described above.

B1: chimeric 81C6 (mouse/human chimeric antibody, human IgG2, from transfectoma F9C11A5) (antibody, V domains shown)
VH: EVQLQQSGPELVKPGASVKMSCKASGYTFTSYVVHWVKQNPGQGLEWIGYINPFNDGTKYNENFKGKATLTSDRSSSTAYMELSSLTSEESAVYFCARDMGREGFAYWGQGTLVTVSA
VL: DIVMTQAAFSNPVTLGTSASISCRSSKSLLHSNGITYLYWYLQKPGQSPQLLIYQMSNLASGVPDRFSSSGSGTDFTLRISRVEAEDVGVYYCAQNLELPRTFGGGTKLEIK
Take B1: the Ka amounted to 1.67e+08 M⁻¹.

The values are drawn from US5624659, “Method of treating brain tumors expressing tenascin” (Duke University, dated 1997).
